Reference: patent publication US5786168

Assays:
[1] = target: PLA2-binding GIF from anti-CD3-treated AC5 cells (human); assay: ELISA of the acid eluate fraction from 110BH3-Sepharose
[2] = target: human antigen non-specific glycosylation inhibiting factor (GIF), hybridoma-derived (human); assay: ELISA of the flow-through fraction from 110BH3-Sepharose
[3] = target: bovine serum albumin (BSA) (bovine) (UniProt P02769); assay: ELISA, nonspecific binding of Ig in the same supernatant to BSA-coated wells
[4] = target: human antigen non-specific glycosylation inhibiting factor (GIF), hybridoma-derived (human); assay: ELISA, culture supernatant on wells coated with affinity-purified GIF from CL3
[5] = target: recombinant human GIF secreted by COS-1 cells co-transfected with SRα-hcGIF and SRα-hfurin (human); assay: fractionation of concentrated COS-1 supernatant on 388F1-Sepharose; GIF bioassay

ELISA signal (absorption at 490 nm) [1]: 0.86 absorbance | ELISA signal (absorption at 490 nm) [2]: 0.36 absorbance | ELISA control (optical density at 410 mµ) [3]: 0.1 OD | ELISA signal (optical density at 410 mµ) [4]: 0.892 OD | GIF activity recovered in the acid eluate fraction [5]: > 75%
Substance: monoclonal anti-human GIF antibody 388F1 (ATCC HB 10472)
